Assay results from PMC9224930, “VH3-53/66-Class RBD-Specific Human Monoclonal Antibody iB20 Displays Cross-Neutralizing Activity against Emerging SARS-CoV-2 Lineages” (Journal of Personalized Medicine, 2022).

Molecular target: T1, SARS-CoV-2 Wuhan-1 receptor-binding domain (RBD) (SARS-CoV-2 (Wuhan-1), UniProt P0DTC2)
T1 construct: also called Wuhan RBD; w.t; RBD
Experiment: BLI; pairwise competition on NTA biosensors (Octet RED96): Wuhan RBD immobilised via its 6xHis tag (200 s), first antibody added (600 s), then the second (600 s)
Details: both partners purified

B1: nAb CV30 (antibody, V domains shown)
VH: QVQLVESGGGLIQPGGSLRLSCAASGVIVSSNYMSWVRQAPGKGLEWVSVIYSGGSTYYADSVKGRFTISRDNSKNTLYLQMNSLRAEDTAVYYCARDLDVSGGMDVWGQGTTVTVSS
VL: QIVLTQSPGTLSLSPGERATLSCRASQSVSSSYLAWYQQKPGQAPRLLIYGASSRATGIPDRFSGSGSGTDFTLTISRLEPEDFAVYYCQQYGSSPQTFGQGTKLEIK
notes: also called recombinant CV30
Does B1 bind?
Result: binds
